Positions count from the first letter of the chain named.
T1: human PAC1 receptor (human, UniProt P41586 21-468)
T1 sequence: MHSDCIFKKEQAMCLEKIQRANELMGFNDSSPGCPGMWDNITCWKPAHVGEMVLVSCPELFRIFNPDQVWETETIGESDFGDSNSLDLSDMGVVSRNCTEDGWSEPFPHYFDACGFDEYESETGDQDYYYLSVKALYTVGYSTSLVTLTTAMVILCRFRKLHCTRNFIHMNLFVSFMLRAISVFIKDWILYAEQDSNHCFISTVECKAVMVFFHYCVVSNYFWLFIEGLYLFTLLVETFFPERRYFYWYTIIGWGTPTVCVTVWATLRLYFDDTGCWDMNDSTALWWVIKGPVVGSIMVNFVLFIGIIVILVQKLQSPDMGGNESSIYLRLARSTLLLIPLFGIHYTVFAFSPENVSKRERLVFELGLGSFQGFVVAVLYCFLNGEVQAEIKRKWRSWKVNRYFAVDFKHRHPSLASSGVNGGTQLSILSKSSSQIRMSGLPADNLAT

B1: iPS:328031 (bispecific antibody, human IgG1, kappa, N297G)
light 1: DIQMTQSPSSLSASVGDRITITCRASQSISRYLNWYQQKPGKAPKLLIYAASSLQSGIPSRFSGSGSGTDFTLTINSLQPEDFATYFCQQSYSPPFTFGQGTKVDIKRTVAAPSVFIFPPSDEQLKSGTASVVCLLNNFYPREAKVQWKVDNALQSGNSQESVTEQDSKDSTYSLESTLTLSKADYEKHKVYACEVTHQGLSSPVTKSFNRGEC
heavy 1: not shown
light 2: EIVLTQSPGTLSLSPGERATLSCRASQSVSSGYLTWYQQKPGQAPRLLIYGASSRATGIPDRFSGSGSGTDFTLTISRLEPEDFAVYYCQQYGNSLSRFGQGTKLEIKRTVAAPSVFIFPPSDEQLKSGTASVVCLLNNFYPREAKVQWKVDNALQSGNSQESVTEQDSKDSTYSLKSTLTLSKADYEKHKVYACEVTHQGLSSPVTKSFNRGEC
heavy 2: not shown
B2: iPS:328033 (bispecific antibody, human IgG1, kappa, N297G)
light 1: not shown
heavy 1: not shown
light 2: B1 light 2
heavy 2: not shown
B3: iPS:328034 (bispecific antibody, human IgG1, kappa, N297G)
light 1: not shown
heavy 1: not shown
light 2: B1 light 2 with Q101K
heavy 2: not shown
B4: iPS:326645 (bispecific antibody, human IgG2, kappa, lambda)
light 1: not shown
heavy 1: QVQLQESGPGLVKPSQTLSLTCTVSGGSISSGGYYWSWIRQHPGKGLEWIGYIYYSGNTYYNPSLKSRVTISGDTSKNQFSLKLRSVTAADTAVYYCTRGGAARGMDVWGQGTTVTVSSASTKGPSVFPLAPCSRSTSESTAALGCLVKDYFPEPVTVSWNSGALTSGVHTFPAVLQSSGLYSLKSVVTVPSSNFGTQTYTCNVDHKPSNTKVDKTVERKCCVECPPCPAPPVAGPSVFLFPPKPKDTLMISRTPEVTCVVVDVSHEDPEVQFNWYVDGVEVHNAKTKPREEQFNSTFRVVSVLTVVHQDWLNGKEYKCKVSNKGLPAPIEKTISKTKGQPREPQVYTLPPSREEMTKNQVSLTCLVDGFYPSDIAVEWESNGQPENNYDTTPPMLDSDGSFFLYSDLTVDKSRWQQGNVFSCSVMHEALHNHYTQKSLSLSPGK
light 2: not shown
heavy 2: not shown
B5: iPS:326651 (bispecific antibody, human IgG2, kappa, lambda)
light 1: not shown
heavy 1: B4 heavy 1
light 2: not shown
heavy 2: not shown
B6: iPS:327897 (bispecific antibody, human IgG1, kappa, lambda, N297G)
light 1: not shown
heavy 1: not shown
light 2: QSVLTQPPSVSAAPGQKVTISCSGSSSNIGNNYVSWYQQLPGTAPKLLIYDNNKRPSGIPDRFSGSKSGTSATLGITGLQTGDEADYYCGTWDSRLSAVVFGGGTKLTVLGQPKANPTVTLFPPSSEELQANKATLVCLISDFYPGAVTVAWKADGSPVKAGVETTKPSKQSNNKYAAKSYLSLTPEQWKSHRSYSCQVTHEGSTVEKTVAPTECS
heavy 2: QVQLVESGGGVVQPGRSLRLSCAASGFTFSSFGMHWVRQAPGKGLEWVAVISFDGSIKYSVDSVKGRFTISRDNSKNTLFLQMNSLRAEDTAVYYCARDRLNYYESSGYYHYKYYGMAVWGQGTTVTVSSASTKGPSVFPLAPSSKSTSGGTAALGCLVKDYFPEPVTVSWNSGALTSGVHTFPAVLQSSGLYSLESVVTVPSSSLGTQTYICNVNHKPSNTKVDKKVEPKSCDKTHTCPPCPAPELLGGPSVFLFPPKPKDTLMISRTPEVTCVVVDVSHEDPEVKFNWYVDGVEVHNAKTKPCEEQYGSTYRCVSVLTVLHQDWLNGKEYKCKVSNKALPAPIEKTISKAKGQPREPQVYTLPPSRKKMTKNQVSLTCLVKGFYPSDIAVEWESNGQPENNYKTTPPVLKSDGSFFLYSKLTVDKSRWQQGNVFSCSVMHEALHNHYTQKSLSLSPGK
B7: iPS:327890 (bispecific antibody, human IgG1, kappa, lambda, N297G)
light 1: not shown
heavy 1: not shown
light 2: B6 light 2 with G75A, G103K
heavy 2: B6 heavy 2 with G44E, E105D, K370E
B8: iPS:327889 (bispecific antibody, human IgG1, kappa, lambda, N297G)
light 1: not shown
heavy 1: not shown
light 2: B6 light 2 with G75A
heavy 2: B6 heavy 2 with E105D, K370E
B9: iPS:327888 (bispecific antibody, human IgG1, kappa, lambda, N297G)
light 1: B1 light 1
heavy 1: not shown
light 2: B6 light 2 with G75A
heavy 2: B6 heavy 2 with E105D, K370E

target: human CGRP receptor (human, UniProt Q16602 23-461; O60894 27-148); assay: cell-based or functional assay
Sequence (Q16602 23-461 limits assumed, chain 1 of 2): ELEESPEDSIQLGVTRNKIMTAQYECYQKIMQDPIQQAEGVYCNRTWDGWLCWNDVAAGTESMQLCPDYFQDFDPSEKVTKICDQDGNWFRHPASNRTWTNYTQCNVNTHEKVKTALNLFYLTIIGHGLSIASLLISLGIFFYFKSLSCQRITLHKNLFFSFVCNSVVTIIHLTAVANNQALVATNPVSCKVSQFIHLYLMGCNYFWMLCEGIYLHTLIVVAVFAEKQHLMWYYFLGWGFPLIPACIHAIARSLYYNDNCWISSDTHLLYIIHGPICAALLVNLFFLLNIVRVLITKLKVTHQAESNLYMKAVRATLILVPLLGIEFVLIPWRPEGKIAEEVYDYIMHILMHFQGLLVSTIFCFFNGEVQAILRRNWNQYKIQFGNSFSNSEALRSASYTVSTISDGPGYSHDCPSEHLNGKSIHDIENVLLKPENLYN
Sequence (O60894 27-148 limits assumed, chain 2 of 2): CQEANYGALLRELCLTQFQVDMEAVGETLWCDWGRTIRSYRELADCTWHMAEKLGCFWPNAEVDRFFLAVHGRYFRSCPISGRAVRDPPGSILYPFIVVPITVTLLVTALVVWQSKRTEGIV

% inhibition of human CGRPR [%] | Binder
75 | B1
82 | B2
86 | B3
67 | B4
66 | B5
80 | B6
94 | B7
83 | B8
83 | B9

target: T1, human PAC1 receptor; assay: cell-based or functional assay

% inhibition of human PAC1 [%] | Binder
27 | B1
20 | B2
9 | B3
59 | B4
23 | B5
12 | B6
15 | B7
9 | B8
56 | B9

From US20170306033A1 (Amgen, published 2017)
